How the values were obtained:
NCAPG2 = molecular target: T1, NCAPG2 (human, UniProt Q86XI2 1-1143, limits assumed); experiment: IP/MS, LZTR1 R810W-FLAG, U87
T1 sequence (looked up): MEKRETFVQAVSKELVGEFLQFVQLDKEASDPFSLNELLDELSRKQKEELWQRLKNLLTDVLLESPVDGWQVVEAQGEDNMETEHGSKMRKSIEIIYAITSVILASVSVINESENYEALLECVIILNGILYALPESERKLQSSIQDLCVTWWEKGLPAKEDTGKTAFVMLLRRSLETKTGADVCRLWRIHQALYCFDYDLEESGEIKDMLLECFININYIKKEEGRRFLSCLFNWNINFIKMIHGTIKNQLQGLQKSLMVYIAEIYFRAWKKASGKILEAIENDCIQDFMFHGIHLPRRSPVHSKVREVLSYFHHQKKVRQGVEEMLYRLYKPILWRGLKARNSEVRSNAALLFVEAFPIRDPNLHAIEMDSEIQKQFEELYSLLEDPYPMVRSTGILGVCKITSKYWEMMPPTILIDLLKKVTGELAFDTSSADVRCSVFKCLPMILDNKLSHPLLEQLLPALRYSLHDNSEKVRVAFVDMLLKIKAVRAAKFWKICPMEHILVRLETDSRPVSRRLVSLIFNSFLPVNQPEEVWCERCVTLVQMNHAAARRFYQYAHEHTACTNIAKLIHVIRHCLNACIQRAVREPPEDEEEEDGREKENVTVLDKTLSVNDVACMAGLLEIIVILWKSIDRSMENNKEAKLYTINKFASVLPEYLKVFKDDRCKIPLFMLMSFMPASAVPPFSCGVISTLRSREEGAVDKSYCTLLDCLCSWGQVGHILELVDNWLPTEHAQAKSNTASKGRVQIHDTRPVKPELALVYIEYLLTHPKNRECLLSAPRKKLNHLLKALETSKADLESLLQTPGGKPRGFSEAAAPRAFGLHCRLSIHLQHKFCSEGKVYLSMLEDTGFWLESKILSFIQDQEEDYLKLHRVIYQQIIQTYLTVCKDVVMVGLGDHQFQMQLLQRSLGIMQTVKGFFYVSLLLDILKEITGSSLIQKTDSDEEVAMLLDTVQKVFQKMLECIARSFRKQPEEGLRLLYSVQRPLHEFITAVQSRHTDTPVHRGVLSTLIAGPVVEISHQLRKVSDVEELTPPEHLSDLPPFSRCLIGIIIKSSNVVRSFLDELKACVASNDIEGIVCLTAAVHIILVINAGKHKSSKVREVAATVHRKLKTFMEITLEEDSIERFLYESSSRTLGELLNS
In short: (§1)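 Extracted peptides in 3% acetonitrile/0.1% formic acid ran on a 50 cm C18 column into an Orbitrap Fusion, with MaxQuant identification and spectral counting.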

FKBP15 = molecular target: T2, FKBP15 (human, UniProt Q5T1M5 1-1219, limits assumed); experiment: IP/MS, LZTR1 R810W-FLAG, U87
T2 sequence (looked up): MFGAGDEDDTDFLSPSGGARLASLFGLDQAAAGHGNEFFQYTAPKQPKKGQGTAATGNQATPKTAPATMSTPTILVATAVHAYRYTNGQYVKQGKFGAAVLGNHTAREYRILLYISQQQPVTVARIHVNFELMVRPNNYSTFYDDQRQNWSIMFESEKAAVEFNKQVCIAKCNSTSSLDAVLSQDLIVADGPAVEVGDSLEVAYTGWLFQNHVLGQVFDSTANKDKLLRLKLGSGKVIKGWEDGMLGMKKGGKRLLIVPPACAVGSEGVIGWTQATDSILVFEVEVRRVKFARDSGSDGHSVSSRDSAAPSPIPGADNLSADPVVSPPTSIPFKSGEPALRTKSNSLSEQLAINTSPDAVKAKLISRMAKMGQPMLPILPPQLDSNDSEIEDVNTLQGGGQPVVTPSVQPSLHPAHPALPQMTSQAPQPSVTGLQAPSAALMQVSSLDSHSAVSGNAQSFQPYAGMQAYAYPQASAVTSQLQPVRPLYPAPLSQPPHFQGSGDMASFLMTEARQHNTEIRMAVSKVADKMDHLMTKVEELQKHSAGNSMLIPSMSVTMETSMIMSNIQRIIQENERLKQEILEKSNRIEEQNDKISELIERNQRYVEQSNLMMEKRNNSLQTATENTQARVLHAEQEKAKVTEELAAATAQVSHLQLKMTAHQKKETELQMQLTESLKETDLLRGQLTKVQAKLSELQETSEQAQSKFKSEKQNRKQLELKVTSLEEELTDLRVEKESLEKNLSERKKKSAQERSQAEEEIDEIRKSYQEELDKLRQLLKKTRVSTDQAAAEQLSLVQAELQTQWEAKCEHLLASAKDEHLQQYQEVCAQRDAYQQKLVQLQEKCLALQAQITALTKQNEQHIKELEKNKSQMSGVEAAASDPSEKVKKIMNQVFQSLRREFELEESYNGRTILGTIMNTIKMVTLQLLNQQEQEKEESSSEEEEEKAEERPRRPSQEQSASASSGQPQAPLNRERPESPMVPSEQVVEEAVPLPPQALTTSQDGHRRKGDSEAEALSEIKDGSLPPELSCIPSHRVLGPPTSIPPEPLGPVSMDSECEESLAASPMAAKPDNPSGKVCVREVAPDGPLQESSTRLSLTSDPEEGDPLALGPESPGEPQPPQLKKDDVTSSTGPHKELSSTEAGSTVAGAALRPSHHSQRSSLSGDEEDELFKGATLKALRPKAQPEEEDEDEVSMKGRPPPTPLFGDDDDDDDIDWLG
In short: as §1

B1: LZTR1 R810W-FLAG (other, human, UniProt Q8N653 1-840, looked up)
chain: MAGPGSTGGQIGAAALAGGARSKVAPSVDFDHSCSDSVEYLTLNFGPFETVHRWRRLPPCDEFVGARRSKHTVVAYKDAIYVFGGDNGKTMLNDLLRFDVKDCSWCRAFTTGTPPAPRYHHSAVVYGSSMFVFGGYTGDIYSNSNLKNKNDLFEYKFATGQWTEWKIEGRLPVARSAHGATVYSDKLWIFAGYDGNARLNDMWTIGLQDRELTCWEEVAQSGEIPPSCCNFPVAVCRDKMFVFSGQSGAKITNNLFQFEFKDKTWTRIPTEHLLRGSPPPPQRRYGHTMVAFDRHLYVFGGAADNTLPNELHCYDVDFQTWEVVQPSSDSEVGGAEVPERACASEEVPTLTYEERVGFKKSRDVFGLDFGTTSAKQPTQPASELPSGRLFHAAAVISDAMYIFGGTVDNNIRSGEMYRFQFSCYPKCTLHEDYGRLWESRQFCDVEFVLGEKEECVQGHVAIVTARSRWLRRKITQARERLAQKLEQEAAPVPREAPGVAAGGARPPLLHVAIREAEARPFEVLMQFLYTDKIKYPRKGHVEDVLLIMDVYKLALSFQLCRLEQLCRQYIEASVDLQNVLVVCESAARLQLSQLKEHCLNFVVKESHFNQVIMMKEFERLSSPLIVEIVRRKQQPPPRTPLDQPVDIGTSLIQDMKAYLEGAGAEFCDITLLLDGHPRPAHKAILAARSSYFEAMFRSFMPEDGQVNISIGEMVPSRQAFESMLRYIYYGEVNMPPEDSLYLFAAPYYYGFYNNRLQAYCKQNLEMNVTVQNVLQILEAADKTQALDMKRHCLHIIVHQFTKVSKLPTLWSLSQQLLLDIIDSLASHISDKQCAELGADI
notes: Stably expressed in U87 cells by lentivirus; also called LZTR1-FLAG-R810W; LZTR1 RW; not shown: FLAG tag
binding result (NCAPG2): binds | binding result (FKBP15): binds

From patent US20250262210A1 (TRUSTEES OF COLUMBIA UNIVERSITY IN THE CITY OF NEW YORK, published 2025)
